Results as given in patent US20250326840A1 (QURE BIOTECHNOLOGY SHANGHAI, published 2025).

B1: QP256253 (antibody, human IgG4, V domains shown)
VH: QVQLVQSGAEVKKPGASVKVSCKASGYTFTNYWINWVRQAPGQGLEWIAMIDPSDSETHYNQIFKDRATLTTDTSTSTAYMELRSLRSDDTAVYYCAMDYGSLYAMDYWGRGTLVTVSS
VL: DIVLTQSPDSLAVSLGERATINCRASKSVSSSGYNYIFWYQQKPGQPPKLLIYLASNLDSGVPDRFSGSGSGTDFTLTISSLQAEDVAVYYCQHSRELPTFGQGTKLEIK
notes: also called humanized antibody QP256253; QP163164 humanized clone
B2: QP2561589 (antibody, human IgG4, V domains shown)
VH: QVQLVQSGAEVKKPGASVKVSCKASGYTFTNYWINWVRQAPGQGLEWIAMIDPSDSETHYNQIFKDRATLTTDTSTSTAYMELRSLRSDDTAVYYCAMDYGSLYAMDYWGRGTLVTVSS
VL: DIVLTQSPDSLAVSLGERATINCRASKSVSSSGYNYIFWYQQKPGQPPKLLIYLASNLDSGVPDRFSGSGSGTDFTLTISSLQAEDVAVYYCQESWELPTFGQGTKLEIK
notes: Human IgG4 heavy constant region and kappa CL
B3: QP026027 (antibody, human IgG1, kappa)
heavy: not shown
light: QIVLTQSPAIMSASPGEKVTLTCSASSSVSSSYLYWYQQKPGSSPKLWIYSTSNLASGVPARFSGSGSGTSYSLTISSMEAEDAASYFCHQWSSYPRTFGAGTKLELKRTVAAPSVFIFPPSDEQLKSGTASVVCLLNNFYPREAKVQWKVDNALQSGNSQESVTEQDSKDSTYSLSSTLTLSKADYEKHKVYACEVTHQGLSSPVTKSFNRGEC
notes: also called KWAR23 (QP026027); control antibody KWAR23, human IgG1
B4: QP32700625 (bispecific antibody, human IgG1, kappa, L234A L235A)
heavy: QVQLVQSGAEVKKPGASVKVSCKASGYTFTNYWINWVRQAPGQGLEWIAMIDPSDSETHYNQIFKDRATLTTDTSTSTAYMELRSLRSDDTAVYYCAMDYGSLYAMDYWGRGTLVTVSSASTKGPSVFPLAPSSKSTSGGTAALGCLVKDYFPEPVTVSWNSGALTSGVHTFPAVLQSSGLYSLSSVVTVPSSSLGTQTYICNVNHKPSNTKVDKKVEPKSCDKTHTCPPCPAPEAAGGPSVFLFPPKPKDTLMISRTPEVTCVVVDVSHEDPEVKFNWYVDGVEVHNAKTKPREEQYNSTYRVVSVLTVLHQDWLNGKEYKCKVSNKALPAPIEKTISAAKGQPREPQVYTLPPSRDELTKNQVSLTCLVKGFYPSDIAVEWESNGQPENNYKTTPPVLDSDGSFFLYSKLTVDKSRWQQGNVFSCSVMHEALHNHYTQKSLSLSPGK
light: EVQLLESGGGLVQPGGSLRLSCAASGFTLDDYAIGWFRQAPGKGREGVSCISKSGETTFFVESVKDRFTISRDNSKNTLYLQMNSLRAEDTAVYYCATGSWCTVGSMSRQFYRQFFHSWGQGTLVTVSSGGGGSGGGGSGGGGSDIVLTQSPDSLAVSLGERATINCRASQSVRSSGYNWIFWYQQKPGQPPKLLIYLASNRDSGVPDRFSGSGSGTDFTLTISSLQAEDVAVYYCQHSRELPTFGQGTKLEIKRTVAAPSVFIFPPSDEQLKSGTASVVCLLNNFYPREAKVQWKVDNALQSGNSQESVTEQDSKDSTYSLSSTLTLSKADYEKHKVYACEVTHQGLSSPVTKSFNRGEC
notes: Anti-PD-L1 VHH-(G4S)3 fused to the N-terminus of the light chain
B5: QP32700624 (bispecific antibody, human IgG1, kappa, L234A L235A)
heavy: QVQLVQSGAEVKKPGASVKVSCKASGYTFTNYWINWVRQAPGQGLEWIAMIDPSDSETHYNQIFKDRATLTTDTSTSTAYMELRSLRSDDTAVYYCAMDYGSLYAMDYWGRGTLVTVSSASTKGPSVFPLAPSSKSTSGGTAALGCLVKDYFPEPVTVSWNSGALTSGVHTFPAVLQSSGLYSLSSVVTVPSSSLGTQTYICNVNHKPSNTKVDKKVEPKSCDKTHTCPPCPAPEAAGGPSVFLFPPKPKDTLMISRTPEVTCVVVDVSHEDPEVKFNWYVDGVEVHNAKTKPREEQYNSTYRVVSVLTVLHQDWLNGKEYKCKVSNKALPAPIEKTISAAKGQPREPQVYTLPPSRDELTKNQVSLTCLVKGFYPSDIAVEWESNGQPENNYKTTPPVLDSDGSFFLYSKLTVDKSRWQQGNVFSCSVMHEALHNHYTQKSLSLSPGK
light: EVQLLESGGGLVQPGGSLRLSCAASGFTLDDYAIGWFRQAPGKGREGVSCISKSGETTFFVESVKDRFTISRDNSKNTLYLQMNSLRAEDTAVYYCATGSWCTVGSMSRQFYRQFFHSWGQGTLVTVSSGGGGSGGGGSDIVLTQSPDSLAVSLGERATINCRASQSVRSSGYNWIFWYQQKPGQPPKLLIYLASNRDSGVPDRFSGSGSGTDFTLTISSLQAEDVAVYYCQHSRELPTFGQGTKLEIKRTVAAPSVFIFPPSDEQLKSGTASVVCLLNNFYPREAKVQWKVDNALQSGNSQESVTEQDSKDSTYSLSSTLTLSKADYEKHKVYACEVTHQGLSSPVTKSFNRGEC
notes: Anti-PD-L1 VHH-(G4S)2 fused to the N-terminus of the light chain
B6: 71C10 (antibody, V domains shown)
VH: QVQLQQPGTELVRPGASVKLSCKASGYTFTNYWINWVKQRPGQGLEWIAMIDPSDSETHYNQIFKDKATLTVDKSSNTAYMQLSSLTSGDSAVYYCAMDYGSLYAMDYWGRGTSVTVSS
VL: DIVLTQSPASLAVSLGQRATISCRASKSVSSSGYNYIFWYQQKPGQPPKLLIYLASNLDSGVPARFSGSGSGTDFTLNIHPVEEEDAATYYCQHSRELPTFGGGTKLEIK
notes: Mouse hybridoma antibody tested as culture supernatant; also called hybridoma monoclonal antibody 71C10; single-cell clone 71C10

Assays:
QP094 (human SIRPα V1 …) [1] = target: T1, QP094 (human SIRPα V1 ECD(E31-R370)-flag-his) (human, UniProt P78324 31-370); test: SPR, Biacore
T1 construct: the construct carries flag and his tags; also called SIRPαV1-flag-his; SIRPαV1-his (QP094)

QP096 (human SIRPα V2 …) [2] = target: T2, QP096 (human SIRPα V2 ECD(E31-R370)-flag-his) (human); test: SPR, Biacore
T2 construct: the construct carries flag and his tags; also called SIRPαV2-Flag-his; Human SIRPα V2 (QP096)

[3] = target: T3, QP100 (cyno SIRPα (G7PGS8) ECD(E29-R368)-flag-his) (cynomolgus); test: SPR, Biacore
T3 construct: the construct carries flag and his tags; also called cynoSIRPα-flag-his; Cynomolgus SIRPα (QP100)
T3 chain: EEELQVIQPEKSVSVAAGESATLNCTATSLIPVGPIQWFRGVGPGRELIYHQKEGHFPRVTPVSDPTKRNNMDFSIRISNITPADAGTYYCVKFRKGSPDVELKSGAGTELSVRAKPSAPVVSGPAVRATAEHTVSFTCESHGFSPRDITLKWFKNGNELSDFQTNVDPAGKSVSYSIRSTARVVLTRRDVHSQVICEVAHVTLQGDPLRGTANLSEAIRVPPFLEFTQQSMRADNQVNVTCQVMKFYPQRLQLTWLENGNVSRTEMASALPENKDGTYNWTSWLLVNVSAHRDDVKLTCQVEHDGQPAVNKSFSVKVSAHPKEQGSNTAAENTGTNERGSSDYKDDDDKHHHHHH

QP094 (human SIRPα V1 …) [4] = target: T1, QP094 (human SIRPα V1 …); test: SPR, Biacore; remark: listed apart in the source
QP096 (human SIRPα V2 …) [5] = target: T2, QP096 (human SIRPα V2 …); test: SPR, Biacore; remark: listed apart in the source
[6] = target: T4, QP098 (cyno SIRPα (I7G9Z7) ECD(E31-R369)-flag-his) (cynomolgus); test: SPR, Biacore
T4 construct: the construct carries flag and his tags; also called cynoSIRPα (ECD); cynomolgus SIRPα
T4 chain: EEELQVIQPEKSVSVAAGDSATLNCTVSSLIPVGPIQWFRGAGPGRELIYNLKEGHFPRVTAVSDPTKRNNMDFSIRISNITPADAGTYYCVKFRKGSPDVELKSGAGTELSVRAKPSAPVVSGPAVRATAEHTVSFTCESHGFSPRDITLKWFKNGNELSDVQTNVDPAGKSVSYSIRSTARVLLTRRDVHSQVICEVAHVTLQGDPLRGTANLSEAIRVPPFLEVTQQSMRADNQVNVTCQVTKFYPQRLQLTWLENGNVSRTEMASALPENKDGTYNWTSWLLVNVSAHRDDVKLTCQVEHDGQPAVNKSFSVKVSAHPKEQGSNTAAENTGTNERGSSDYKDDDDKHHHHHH

[7] = target: T5, QP271 (rhesus SIRPα1-flag-his T-557-28) (rhesus monkey); test: SPR, Biacore
T5 construct: also called rhesus monkey SIRPα (QP271); monkeySIRPα1-flag-his
T5 chain: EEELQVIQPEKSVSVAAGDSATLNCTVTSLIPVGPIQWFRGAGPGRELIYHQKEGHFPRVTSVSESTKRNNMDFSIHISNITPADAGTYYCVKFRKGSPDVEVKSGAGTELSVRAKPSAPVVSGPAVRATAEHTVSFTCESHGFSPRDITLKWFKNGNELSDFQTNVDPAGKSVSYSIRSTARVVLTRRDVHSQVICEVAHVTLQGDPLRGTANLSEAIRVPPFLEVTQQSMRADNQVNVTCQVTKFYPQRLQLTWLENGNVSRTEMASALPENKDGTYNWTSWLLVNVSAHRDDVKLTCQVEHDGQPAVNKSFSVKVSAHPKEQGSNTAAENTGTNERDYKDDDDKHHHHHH

[8] = target: T6, QP273 (cynoSIRPα2-flag-his T-557-14) (cynomolgus); test: SPR, Biacore
T6 construct: also called cynomolgus SIRPα (QP273)
T6 chain: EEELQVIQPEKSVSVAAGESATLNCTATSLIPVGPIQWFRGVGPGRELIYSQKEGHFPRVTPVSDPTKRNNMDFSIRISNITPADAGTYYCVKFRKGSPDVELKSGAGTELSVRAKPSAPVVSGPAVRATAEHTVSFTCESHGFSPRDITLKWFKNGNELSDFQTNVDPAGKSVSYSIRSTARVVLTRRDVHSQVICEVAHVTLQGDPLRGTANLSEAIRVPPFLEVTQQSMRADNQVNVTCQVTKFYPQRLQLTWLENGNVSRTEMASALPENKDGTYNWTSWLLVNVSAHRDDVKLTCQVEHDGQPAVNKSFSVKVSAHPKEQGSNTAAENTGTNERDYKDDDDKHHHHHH

QP094 (human SIRPα V1 …) [9] = target: T1, QP094 (human SIRPα V1 …); test: binding ELISA, antigen coated
QP096 (human SIRPα V2 …) [10] = target: T2, QP096 (human SIRPα V2 …); test: binding ELISA, antigen coated
[11] = target: T4, QP098 (cyno SIRPα (I7G9Z7) …); test: binding ELISA, antigen coated
[12] = target: T3, QP100 (cyno SIRPα (G7PGS8) …); test: binding ELISA, antigen coated
[13] = target: T5, QP271 (rhesus SIRPα1-flag-his T-557-28); test: binding ELISA, antigen coated
[14] = target: T6, QP273 (cynoSIRPα2-flag-his T-557-14); test: binding ELISA, antigen coated
QP002 [15] = target: T7, QP002 (biotinylated in the blocking assays, sites not given); test: blocking ELISA: QP001.2 (CD47) coated, biotin-QP002 (SIRPα-FC) mixed with the antibody, HRP-streptavidin; blocked ligand: CD47
T7 construct: also called SIRPα-FC; Biotin-QP002

QP094 (human SIRPα V1 …) [16] = target: T1, QP094 (human SIRPα V1 …); test: SPR, Biacore T200
QP096 (human SIRPα V2 …) [17] = target: T2, QP096 (human SIRPα V2 …); test: SPR, Biacore T200
QP002 [18] = target: T7, QP002; test: blocking ELISA: CD47 FC (QP001) coated, biotin SIRPα-FC (QP002) mixed with the antibody, HRP-streptavidin; blocked ligand: CD47; unit from the x axis Log(Conc.(nM))
PD-L1-his (QPP09) = target: T8, PD-L1-his (QPP09) (human, UniProt Q9NZQ7 19-239, limits assumed); test: SPR, Biacore 8K
T8 construct: also called human PD-L1; human PD-L1 recombinant protein
T8 sequence (Q9NZQ7 19-239 limits assumed): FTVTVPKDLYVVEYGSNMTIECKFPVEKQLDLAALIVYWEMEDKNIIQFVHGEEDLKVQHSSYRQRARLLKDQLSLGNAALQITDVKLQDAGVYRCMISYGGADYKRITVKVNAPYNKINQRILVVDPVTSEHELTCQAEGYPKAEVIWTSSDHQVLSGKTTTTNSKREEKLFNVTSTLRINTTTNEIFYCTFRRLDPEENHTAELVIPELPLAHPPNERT

QP003 (PDL1-his) = test: ELISA, QP003 (PDL1-his) captured on coated anti-his, anti-hFc detection; unit from the x axis Log(Conc.(nM))
Sequence of QP003 (PDL1-his) (chain, as listed by the source limits assumed): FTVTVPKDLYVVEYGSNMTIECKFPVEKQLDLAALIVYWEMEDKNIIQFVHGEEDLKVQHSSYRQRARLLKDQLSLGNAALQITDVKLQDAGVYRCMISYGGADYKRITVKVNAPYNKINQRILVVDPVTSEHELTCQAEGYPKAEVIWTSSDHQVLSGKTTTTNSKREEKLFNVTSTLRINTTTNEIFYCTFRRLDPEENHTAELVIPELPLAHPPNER

PD-L1-mouse Fc protein = PD-L1-mouse Fc protein (human, UniProt Q9NZQ7 19-239, limits assumed); test: blocking ELISA: QP1138 (PD1-FC) coated, PDL1-mouse FC mixed with the antibody, HRP anti-mouse IgG; blocked partner: PD-1; unit from the x axis Log(Conc.(nM))
Sequence of PD-L1-mouse Fc protein (Q9NZQ7 19-239 limits assumed): as the sequence (Q9NZQ7 19-239 limits assumed) above

QP009 (SIRPα) = target: T9, QP009 (SIRPα) (Homo sapiens (Human)); test: ELISA of hybridoma supernatant on QP009
T9 construct: Entry includes a C-terminal flag-his tag as printed; also called recombinant protein QP009
T9 chain: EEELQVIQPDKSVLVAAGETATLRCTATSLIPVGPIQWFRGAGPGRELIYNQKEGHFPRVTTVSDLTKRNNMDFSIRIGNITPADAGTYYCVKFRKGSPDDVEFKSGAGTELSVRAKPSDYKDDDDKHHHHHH

Binder | Kd (QP094 (human SIRPα V1 …) [4]) | Kd (QP096 (human SIRPα V2 …) [5]) | Kd [6] | Kd [7] | Kd [8] | EC50 (QP094 (human SIRPα V1 …) [9]) | EC50 (QP096 (human SIRPα V2 …) [10]) | EC50 [11] | EC50 [12] | EC50 [13] | EC50 [14] | IC50 (read off the curve) (QP002 [15]) | Kd (PD-L1-his (QPP09)) | koff (PD-L1-his (QPP09)) | kon (PD-L1-his (QPP09)) | EC50 (QP003 (PDL1-his)) | IC50 (PD-L1-mouse Fc protein) | also measured
B1 | 0.26 nM | 0.276 nM | 26.8 nM | 7.97 nM | 12.7 nM | 1.19 ng/mL | 1.19 ng/mL | 1.26 ng/mL | 1.72 ng/mL | 0.947 ng/mL | 1.51 ng/mL | ~20 ng/mL |  |  |  |  |  | Kd (QP094 (human SIRPα V1 …) [1]): 0.336 nM; koff (QP094 (human SIRPα V1 …) [1]): 0.00079 s⁻¹; kon (QP094 (human SIRPα V1 …) [1]): 2.35e+06 M⁻¹ s⁻¹; Kd (QP096 (human SIRPα V2 …) [2]): 0.319 nM; koff (QP096 (human SIRPα V2 …) [2]): 0.00109 s⁻¹; kon (QP096 (human SIRPα V2 …) [2]): 3.42e+06 M⁻¹ s⁻¹; Kd [3]: 77.9 nM; koff [3]: 0.196 s⁻¹; kon [3]: 2.52e+06 M⁻¹ s⁻¹
B2 | 0.085 nM | 0.0392 nM | 6.03 nM | 2.41 nM | 3.2 nM | 1.37 ng/mL | 1.17 ng/mL | 1.6 ng/mL | 2.01 ng/mL | 0.936 ng/mL | 1.43 ng/mL | ~20 ng/mL |  |  |  |  |  | 
B3 |  |  |  |  |  |  |  |  |  |  |  |  |  |  |  |  |  | Kd (QP094 (human SIRPα V1 …) [16]): 5.12 nM; koff (QP094 (human SIRPα V1 …) [16]): 0.00465 s⁻¹; kon (QP094 (human SIRPα V1 …) [16]): 908000 M⁻¹ s⁻¹; Kd (QP096 (human SIRPα V2 …) [17]): 12.3 nM; koff (QP096 (human SIRPα V2 …) [17]): 0.0246 s⁻¹; kon (QP096 (human SIRPα V2 …) [17]): 2.01e+06 M⁻¹ s⁻¹; IC50 (QP002 [18]): 0.295 nM
B4 |  |  |  |  |  |  |  |  |  |  |  |  | 1.29 nM | 0.00103 s⁻¹ | 801000 M⁻¹ s⁻¹ | 0.0133 nM | 0.59 nM | 
B5 |  |  |  |  |  |  |  |  |  |  |  |  | 1.64 nM | 0.00122 s⁻¹ | 744000 M⁻¹ s⁻¹ | 0.0134 nM | 0.663 nM | 
B6 |  |  |  |  |  |  |  |  |  |  |  |  |  |  |  |  |  | binding result (QP009 (SIRPα)): binds
